Test results as given in article PMC7862700, “An all-to-all approach to the identification of sequence-specific readers for epigenetic DNA modifications on cytosine”.

Assays:
[1] = biological target: T1, ETS2 (Homo sapiens, UniProt P15036 1-469); assay: BLI (OCTET); EMSA: 25 mM HEPES pH 8.0, 100 mM NaCl, 50 mM KAc, 5 mM MgCl2, 5% glycerol, 1 mM DTT, 0.1 mg/mL BSA, ~22 C, 5 nM probe; OCTET: 50 mM HEPES pH 8.0, 100 mM NaCl, 50 mM KAc, 5 mM MgCl2, 40 mM glutathione, 5 mg/mL BSA, 0.05% Tween-20; settings: protein: recombinant; tags: N-terminal GST; label: 5' biotin on strand 2 (Bio-T7 primer); blunt
T1 sequence: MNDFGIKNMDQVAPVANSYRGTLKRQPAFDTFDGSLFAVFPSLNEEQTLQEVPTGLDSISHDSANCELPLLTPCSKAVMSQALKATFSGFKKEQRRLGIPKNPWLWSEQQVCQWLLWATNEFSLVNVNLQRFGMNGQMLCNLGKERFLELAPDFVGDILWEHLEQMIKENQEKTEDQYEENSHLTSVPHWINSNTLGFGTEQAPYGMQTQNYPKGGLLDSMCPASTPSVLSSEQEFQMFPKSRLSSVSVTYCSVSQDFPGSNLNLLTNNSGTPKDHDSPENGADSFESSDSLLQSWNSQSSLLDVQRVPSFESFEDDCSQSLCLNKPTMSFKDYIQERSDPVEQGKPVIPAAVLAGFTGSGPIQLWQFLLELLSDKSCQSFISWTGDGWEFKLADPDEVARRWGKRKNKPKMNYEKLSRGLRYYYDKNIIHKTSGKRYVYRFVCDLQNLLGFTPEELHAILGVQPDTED

[2] = biological target: T2, SPDEF (Homo sapiens, UniProt O95238 1-335); assay: as above; settings: protein: recombinant; tags: N-terminal GST; label: 5' biotin on strand 2 (Bio-T7 primer); blunt
T2 sequence: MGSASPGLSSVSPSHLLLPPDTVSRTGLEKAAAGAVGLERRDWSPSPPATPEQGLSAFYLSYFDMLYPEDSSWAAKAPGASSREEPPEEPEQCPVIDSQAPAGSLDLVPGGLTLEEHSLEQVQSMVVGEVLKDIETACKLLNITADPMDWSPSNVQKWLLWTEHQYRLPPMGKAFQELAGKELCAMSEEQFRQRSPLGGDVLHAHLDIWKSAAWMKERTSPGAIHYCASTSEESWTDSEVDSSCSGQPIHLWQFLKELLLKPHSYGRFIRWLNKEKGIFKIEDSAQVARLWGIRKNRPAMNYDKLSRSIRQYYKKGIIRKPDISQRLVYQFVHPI

B1: ETS family probe (dsDNA)
DNA 1: ACTTCCGGTTATAGTGAGTGCTATTA
DNA 2: TAATAGCACTCACTATAACCGGAAGT
Which results are given for B1?
Kd [1]: 1.8 nM; Kd [2]: 132 nM
